Results: publication PMC11095456

How the values were obtained:
[1] = biological target: EVI1 MAPPIT bait, wild type; assay: MAPPIT; settings: HEK293T cells; +Epo; cotransfected with EVI1; parent: est. 29; read off a plot; scale: % of maximum induction
[2] = biological target: CTBP2 MAPPIT prey, wild type (UniProt P56545); assay: MAPPIT; settings: HEK293T cells; +Epo; cotransfected with CTBP2; parent: est. 32; read off a plot; scale: % of maximum induction

Row | Substance | response [1] | response [2]
1 | CTBP2 MAPPIT prey, wild type (from UniProt P56545) A58E | 29 | 
2 | EVI1 MAPPIT bait, wild type PFDLT SWAP |  | 3
3 | EVI1 MAPPIT bait, wild type PFDLT>PFAST |  | 30
4 | EVI1 MAPPIT bait, wild type PLDLS>PLASS |  | 3

Second part, the substance after the results:

Row | response [1] | response [2] | Substance
5 | 10 |  | CTBP2 MAPPIT prey, wild type (from UniProt P56545) A58E; V72R
6 | 11 |  | CTBP2 MAPPIT prey, wild type (from UniProt P56545) V72R
7 |  | 5 | EVI1 MAPPIT bait, wild type PLDLS SWAP
